Several values for one entry are separate records, joined by “and”; a condition that tells them apart may be missing. Equal entries are not always repeated.
Assays:
[1] = target: T1, human IL-13 (human, UniProt P35225 35-146); assay: cell-based or functional assay
[2] = target: cynomolgus IL-13 (cynomolgus, UniProt Q0PW92 21-132); assay: cell-based or functional assay
[3] = target: T1, human IL-13; assay: IL-13 sandwich ELISA (IL-13 binding to the capture antibody inhibited); block 4; sample #16 (2.6 mg/mL in PBS), aerosolised material after LC+ jet nebuliser
Protocol: (§1) The plate was then incubated with TMB substrate (KPL, Gaithersburg, USA), and the reaction was stopped by the addition of HCl and the absorbance read at 450 nm.
(§2) Nebulisation was performed for approximately 3 minutes. 100 uL of protein samples (diluted to 1 mg/mL) were injected onto the SEC (TSKgel G2000SWXL, Tosoh Biosciences, Germany) column. The protein separation on SEC was performed at 0.5 mL/min for 45 minutes. PBS (phosphate buffered saline)+10% EtOH was used as mobile phase. The detection of eluting proteinaceous material was carried by on-line detection by UV (Abs 280 nm & 215 nm). […] The optimum MMAD is 3 μm and for deep lung delivery the desirable respirable fraction is the highest percentage of particles <5 μm. The LC+ (Pari) Jet nebuliser gives the better MMAD: MMAD values are lower when the buffer contains PEG; MMAD decreases as protein concentration increases.

[4] = target: T1, human IL-13; assay: IL-13 sandwich ELISA: dAb dilution series mixed with IL-13, binding of IL-13 to the coating (capture) antibody detected; block 1 of the table, sample not nebulised
Protocol: as §1, §2

[5] = target: T1, human IL-13; assay: IL-13 sandwich ELISA: dAb dilution series mixed with IL-13, binding of IL-13 to the coating (capture) antibody detected; block 2 of the table, sample not nebulised
Protocol: as §1, §2

[6] = target: T1, human IL-13; assay: IL-13 sandwich ELISA: dAb dilution series mixed with IL-13, binding of IL-13 to the coating (capture) antibody detected; block 3 of the table, sample not nebulised
Protocol: as §1, §2

[7] = target: T1, human IL-13; assay: IL-13 sandwich ELISA: dAb dilution series mixed with IL-13, binding of IL-13 to the coating (capture) antibody detected; block 4 of the table, sample not nebulised
Protocol: as §1, §2

[8] = target: T1, human IL-13; assay: IL-13 sandwich ELISA (IL-13 binding to the capture antibody inhibited); block 4; sample #16 (2.6 mg/mL in PBS), material remaining in the cup after LC+ jet nebuliser
Protocol: as §1, §2

[9] = target: T1, human IL-13; assay: IL-13 sandwich ELISA (IL-13 binding to the capture antibody inhibited); block 4; sample #16 (2.6 mg/mL in PBS), aerosolised material after E-flow vibrating mesh nebuliser
Protocol: as §1, §2

[10] = target: T1, human IL-13; assay: IL-13 sandwich ELISA (IL-13 binding to the capture antibody inhibited); block 3; sample #16 (2.6 mg/mL in PBS), material remaining in the cup after E-flow vibrating mesh nebuliser
Protocol: as §1, §2

[11] = target: T1, human IL-13; assay: IL-13 sandwich ELISA (IL-13 binding to the capture antibody inhibited); block 2; sample #14 (2.3 mg/ml, 25 mM sodium phosphate pH 7.5, 7% PEG1000, 1.2% sucrose), aerosolised material after LC+ jet nebuliser
Protocol: as §1, §2

[12] = target: T1, human IL-13; assay: IL-13 sandwich ELISA (IL-13 binding to the capture antibody inhibited); block 3; sample #15 (4.7 mg/mL, 25 mM sodium phosphate pH 7.5, 7% PEG1000, 1.2% sucrose), aerosolised material after LC+ jet nebuliser
Protocol: as §1, §2

[13] = target: T1, human IL-13; assay: IL-13 sandwich ELISA (IL-13 binding to the capture antibody inhibited); block 1; sample #14 (2.3 mg/ml, 25 mM sodium phosphate pH 7.5, 7% PEG1000, 1.2% sucrose), material remaining in the cup after LC+ jet nebuliser
Protocol: as §1, §2

[14] = target: T1, human IL-13; assay: IL-13 sandwich ELISA (IL-13 binding to the capture antibody inhibited); block 3; sample #15 (4.7 mg/mL, 25 mM sodium phosphate pH 7.5, 7% PEG1000, 1.2% sucrose), material remaining in the cup after LC+ jet nebuliser
Protocol: as §1, §2

[15] = target: T1, human IL-13; assay: IL-13 sandwich ELISA (IL-13 binding to the capture antibody inhibited); block 1; sample #14 (2.3 mg/ml, 25 mM sodium phosphate pH 7.5, 7% PEG1000, 1.2% sucrose), aerosolised material after E-flow vibrating mesh nebuliser
Protocol: as §1, §2

[16] = target: T1, human IL-13; assay: IL-13 sandwich ELISA (IL-13 binding to the capture antibody inhibited); block 2; sample #15 (4.7 mg/mL, 25 mM sodium phosphate pH 7.5, 7% PEG1000, 1.2% sucrose), aerosolised material after E-flow vibrating mesh nebuliser
Protocol: as §1, §2

[17] = target: T1, human IL-13; assay: IL-13 sandwich ELISA (IL-13 binding to the capture antibody inhibited); block 2; sample #15 (4.7 mg/mL, 25 mM sodium phosphate pH 7.5, 7% PEG1000, 1.2% sucrose), material remaining in the cup after E-flow vibrating mesh nebuliser
Protocol: as §1, §2

[18] = target: T1, human IL-13; assay: IL-13 sandwich ELISA: dAb dilution series mixed with IL-13, binding of IL-13 to the coating (capture) antibody detected; block 1 of the table, standard
[19] = target: T1, human IL-13; assay: IL-13 sandwich ELISA: dAb dilution series mixed with IL-13, binding of IL-13 to the coating (capture) antibody detected; block 2 of the table, standard
[20] = target: T1, human IL-13; assay: IL-13 sandwich ELISA: dAb dilution series mixed with IL-13, binding of IL-13 to the coating (capture) antibody detected; block 3 of the table, standard
[21] = target: T1, human IL-13; assay: IL-13 sandwich ELISA: dAb dilution series mixed with IL-13, binding of IL-13 to the coating (capture) antibody detected; block 4 of the table, standard

cynomolgus IL-13, sequence (Q0PW92 entry or part of it): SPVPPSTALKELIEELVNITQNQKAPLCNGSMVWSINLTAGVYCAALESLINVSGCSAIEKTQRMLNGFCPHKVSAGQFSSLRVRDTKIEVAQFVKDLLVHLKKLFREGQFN
T1 sequence (P35225 35-146 limits assumed): as the sequence (Q0PW92 entry or part of it) above, with S1G, K10R, V42M, N67S, R83H, V100L counted along it

B1: DOM10-275-78 (single domain antibody (dAb), V domains shown)
VH: EVQLLESGGGLVQPGGSLRLSCVASGFTFDVAEMDWVRQAPGKGLEWVSTISPSRRGTYYADSVKGRFTISRDNSKNTLYLQMNSLRAEDTAVYYCAKAYTGRSLWGPGTLVTVSS
EC50, FIG. 1A: inhibition of human IL-13 (3 ng/ml) stimulated alkaline phosphatase production in HEK STAT6 cells [1]: 2.42 nM and 2.65 nM | EC50, FIG. 1B: inhibition of cynomolgus IL-13 (3 ng/ml) stimulated alkaline phosphatase production in HEK STAT6 cells [2]: 1.37 nM

B2: DOM10-53-474 (single domain antibody (dAb), V domains shown)
VH: GVQLLESGGGLVQPGGSLRLSCAASGFTFAWYDMGWVRQAPGKGLEWVSSIDWHGEVTYYADSVKGRFTISRDNSKNTLYLQMNSLRAEDTAVYYCATAEDEPGYDYWGQGTLVTVSS
notes: Soluble anti-IL-13 domain antibody monomer (immunoglobulin single variable domain); also called anti-IL-13 dAb
EC50, FIG. 1A: inhibition of human IL-13 (3 ng/ml) stimulated alkaline phosphatase production in HEK STAT6 cells [1]: 0.72 nM | EC50, FIG. 1B: inhibition of cynomolgus IL-13 (3 ng/ml) stimulated alkaline phosphatase production in HEK STAT6 cells [2]: 10.8 nM | IC50 [3]: 0.023 nM | IC50 [4]: 0.0458 nM | IC50 [5]: 0.0356 nM | IC50 [6]: 0.0289 nM | IC50 [7]: 0.0269 nM | IC50 [8]: 0.0339 nM | IC50 [9]: 0.0351 nM | IC50 [10]: 0.0224 nM | IC50 [11]: 0.0348 nM | IC50 [12]: 0.0149 nM | IC50 [13]: 0.0317 nM | IC50 [14]: 0.0129 nM | IC50 [15]: 0.0322 nM | IC50 [16]: 0.0185 nM | IC50 [17]: 0.0214 nM

B3: DOM10-53-344 (Std) (single domain antibody (dAb), V domains shown)
VH: GVQLLESGGGLVQPGGSLRLSCAASGFIFAWYDMGWVRQAPGKGLEWVSSIDWHGEVTYYADSVKGRFTISRDNSKNTLYLQMNSLRAEDTAVYYCATAEDEPGYDYWGQGTLVTVSS
IC50 [18]: 0.0716 nM | IC50 [19]: 0.125 nM | IC50 [20]: 0.0455 nM | IC50 [21]: 0.0671 nM

Source: patent publication US20120093830A1 (published 2012)
